Kd data for one variant are collected here from PMC11093223 (2024).

The Kd is the equilibrium constant for the complex coming apart.

The chains are these.
B1: syntaxin-16 (209–221) peptide [human] / TBC1D23 C-terminal domain [mouse] (parent complex)
chain 1: DDNTLYHRGFTED
chain 2: DRKEVVNIQTWINKPDIKHHFPCKEVKESGHMFPSHLLVTATHMYCLREILSRKGLAYIQSRQALNSVVKITSKKKHPELITFKYGNSSASGIEILAIERYLIPNAGDATRAIKQQIMKVLDALES

In this assay the parent is B1. Nature of the assay: ITC. Background: In ITC the heat of successive injections is recorded.
For chain 1 R8A, the Kd worked out at 10.3 µM.
